B1: SPDEF (parent)
chain: FQELAGKELCAMSEEQFRQRSPLG

Variants of: B1
Experiment: protein stability index of a GFP-peptide fusion (GPS, HEK-293T) (PSI 1-6); higher = more stable
Conditions: c terminus: a fixed tail appended
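Also: lentivirally expressed fusions sorted by FACS into six bins by GFP to DsRed ratio, PSI derived from sequencing read proportions per bin multiplied by bin number.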

| Variant | protein stability index |
| --- | --- |
| FQELAGKKLCAMSEEQFRQRSPLG [E8K] | 2.32 |
| FQELAGKALCAMSEEQFRQRSPLG [E8A] | 2.37 |
| FQELAGKDLCAMSEEQFRQRSPLG [E8D] | 2.79 |
| FQELAGKTLCAMSEEQFRQRSPLG [E8T] | 1.99 |
| FQELAGKGLCAMSEEQFRQRSPLG [E8G] | 1.73 |
| FQELAGKYLCAMSEEQFRQRSPLG [E8Y] | 1.89 |
| FQELAGKSLCAMSEEQFRQRSPLG [E8S] | 2.12 |
| FQELAGKQLCAMSEEQFRQRSPLG [E8Q] | 2.25 |
| FQELAGKVLCAMSEEQFRQRSPLG [E8V] | 2.52 |
| FQELAGKWLCAMSEEQFRQRSPLG [E8W] | 2.87 |
| FQELAGKNLCAMSEEQFRQRSPLG [E8N] | 2.27 |
| FQELAGKLLCAMSEEQFRQRSPLG [E8L] | 2.5 |
| FQELAGKRLCAMSEEQFRQRSPLG [E8R] | 1.78 |
| FQELAGKFLCAMSEEQFRQRSPLG [E8F] | 2.79 |
| FQELAGKPLCAMSEEQFRQRSPLG [E8P] | 2.06 |
| FQELAGKHLCAMSEEQFRQRSPLG [E8H] | 1.77 |
| FQELAGKILCAMSEEQFRQRSPLG [E8I] | 1.53 |
| FQELAGKMLCAMSEEQFRQRSPLG [E8M] | 2.5 |
| FQELAGSELCAMSEEQFRQRSPLG [K7S] | 2.94 |
| FQELAGVELCAMSEEQFRQRSPLG [K7V] | 2.61 |
| FQELAGTELCAMSEEQFRQRSPLG [K7T] | 3.38 |
| FQELAGLELCAMSEEQFRQRSPLG [K7L] | 2.3 |
| FQELAGCELCAMSEEQFRQRSPLG [K7C] | 1.99 |
| FQELAGQELCAMSEEQFRQRSPLG [K7Q] | 4 |

| Variant | protein stability index |
| --- | --- |
| FQELAGYELCAMSEEQFRQRSPLG [K7Y] | 1.58 |
| FQELAGDELCAMSEEQFRQRSPLG [K7D] | 4.25 |
| FQELAGRELCAMSEEQFRQRSPLG [K7R] | 2.3 |
| FQELAGWELCAMSEEQFRQRSPLG [K7W] | 1.73 |
| FQELAGEELCAMSEEQFRQRSPLG [K7E] | 3.66 |
| FQELAGFELCAMSEEQFRQRSPLG [K7F] | 2.18 |
| FQELAGHELCAMSEEQFRQRSPLG [K7H] | 2.86 |
| FQELAGGELCAMSEEQFRQRSPLG [K7G] | 3 |
| FQELAGPELCAMSEEQFRQRSPLG [K7P] | 3.35 |
| FQELAGMELCAMSEEQFRQRSPLG [K7M] | 2.97 |
| FQELAGAELCAMSEEQFRQRSPLG [K7A] | 2.58 |
| FQELAGIELCAMSEEQFRQRSPLG [K7I] | 1.81 |
| FQELAGNELCAMSEEQFRQRSPLG [K7N] | 2.84 |
| FQELAGKELCAMAEEQFRQRSPLG [S13A] | 3.62 |
| FQELAGKELCAMCEEQFRQRSPLG [S13C] | 2.11 |
| FQELAGKELCAMGEEQFRQRSPLG [S13G] | 2.57 |
| FQELAGKELCAMKEEQFRQRSPLG [S13K] | 2.58 |
| FQELAGKELCAMHEEQFRQRSPLG [S13H] | 2.2 |
| FQELAGKELCAMDEEQFRQRSPLG [S13D] | 2.89 |
| FQELAGKELCAMIEEQFRQRSPLG [S13I] | 2.19 |
| FQELAGKELCAMLEEQFRQRSPLG [S13L] | 1.71 |
| FQELAGKELCAMEEEQFRQRSPLG [S13E] | 2.61 |
| FQELAGKELCAMFEEQFRQRSPLG [S13F] | 2.15 |
| FQELAGKEVCAMSEEQFRQRSPLG [L9V] | 2.71 |

| Variant | protein stability index |
| --- | --- |
| FQELAGKEHCAMSEEQFRQRSPLG [L9H] | 3.9 |
| FQELAGKEPCAMSEEQFRQRSPLG [L9P] | 3.83 |
| FQELAGKERCAMSEEQFRQRSPLG [L9R] | 3.24 |
| FQELAGKEACAMSEEQFRQRSPLG [L9A] | 3.41 |
| FQELAGKEDCAMSEEQFRQRSPLG [L9D] | 4.79 |
| FQELAGKEECAMSEEQFRQRSPLG [L9E] | 4.93 |
| FQELAGKEGCAMSEEQFRQRSPLG [L9G] | 4.34 |
| FQELAGKETCAMSEEQFRQRSPLG [L9T] | 3.69 |
| FQELAGKEQCAMSEEQFRQRSPLG [L9Q] | 4.25 |
| FQELAGKEMCAMSEEQFRQRSPLG [L9M] | 3.41 |
| FQELAGKEFCAMSEEQFRQRSPLG [L9F] | 2.56 |
| FQELAGKECCAMSEEQFRQRSPLG [L9C] | 2.63 |
| FQELAGKEYCAMSEEQFRQRSPLG [L9Y] | 3.25 |
| FQELAGKESCAMSEEQFRQRSPLG [L9S] | 3.23 |
| FQELAGKEICAMSEEQFRQRSPLG [L9I] | 3.19 |
| FQELAGKEWCAMSEEQFRQRSPLG [L9W] | 2.8 |
| FQELAGKENCAMSEEQFRQRSPLG [L9N] | 4.37 |
| FQELAGKEKCAMSEEQFRQRSPLG [L9K] | 3.61 |
| FQELVGKELCAMSEEQFRQRSPLG [A5V] | 3.44 |
| FQELNGKELCAMSEEQFRQRSPLG [A5N] | 2.82 |
| FQELFGKELCAMSEEQFRQRSPLG [A5F] | 2.5 |
| FQELDGKELCAMSEEQFRQRSPLG [A5D] | 3.71 |
| FQELGGKELCAMSEEQFRQRSPLG [A5G] | 2.88 |
| FQELEGKELCAMSEEQFRQRSPLG [A5E] | 3.83 |

| Variant | protein stability index |
| --- | --- |
| FQELIGKELCAMSEEQFRQRSPLG [A5I] | 2.47 |
| FQELPGKELCAMSEEQFRQRSPLG [A5P] | 3.58 |
| FQELSGKELCAMSEEQFRQRSPLG [A5S] | 2.24 |
| FQELMGKELCAMSEEQFRQRSPLG [A5M] | 2.58 |
| FQELHGKELCAMSEEQFRQRSPLG [A5H] | 2.73 |
| FQELLGKELCAMSEEQFRQRSPLG [A5L] | 1.82 |
| FQELYGKELCAMSEEQFRQRSPLG [A5Y] | 2.6 |
| FQELCGKELCAMSEEQFRQRSPLG [A5C] | 2.69 |
| FQELWGKELCAMSEEQFRQRSPLG [A5W] | 1.9 |
| FQELKGKELCAMSEEQFRQRSPLG [A5K] | 3.27 |
| FQELQGKELCAMSEEQFRQRSPLG [A5Q] | 3.32 |
| FQELRGKELCAMSEEQFRQRSPLG [A5R] | 2.17 |
| FQELTGKELCAMSEEQFRQRSPLG [A5T] | 2.46 |
| FQELAGKELCASSEEQFRQRSPLG [M12S] | 3.75 |
| FQELAGKELCAISEEQFRQRSPLG [M12I] | 2.46 |
| FQELAGKELCADSEEQFRQRSPLG [M12D] | 3.83 |
| FQELAGKELCAVSEEQFRQRSPLG [M12V] | 2.83 |
| FQELAGKELCANSEEQFRQRSPLG [M12N] | 3.3 |
| FQELAGKELCALSEEQFRQRSPLG [M12L] | 2.72 |
| FQELAGKELCATSEEQFRQRSPLG [M12T] | 3.4 |
| FQELAGKELCAPSEEQFRQRSPLG [M12P] | 2.38 |
| FQELAGKELCAFSEEQFRQRSPLG [M12F] | 2.47 |

— the supplement of paper PMC10567573
